From US10883116B2, “Transduction buffer” (Koninklijke Nederlandse Akademie van Wetenschappen, priority 2013, dated 2021)
Entries after “also recorded” stand apart in the source; their conditions may differ.

What was measured:
KBM7 cells [1] = assay: CRE recombinase reporter in KBM7 cells, Cas9-adapted transduction buffer; format: cell-based, human; details: 1250 mOsmol/Kg, 250 mM GABA
Experimental: (C) Top panel. Schematic depiction of the CRE recombinase reporter. […] Untransduced cells express Red fluorescent protein. […] Bottom panel. KBM7 cells transduced with CRE protein with osmocytosis media at 1250 mOsmol/Kg with 250 mM GABA (compound #20) during 60 minutes. Upper panels represent fluorescent pictures in green and red channel. Bottom panels represent FACS plots showing in x axes green fluorescence and in y axes red fluorescence or frequency of events. Percentages of events are depicted in the corresponding area.
To further test the duration of the transduction with the modified transduction buffer, we performed a Cre recombinase protein transduction at 1250 mOsmol/Kg and 250 mM GABA at different time points and measured the percentage of cells with successful cre-mediated reporter activation as well as BrdU incorporation as a measure of cell proliferation and survival. Under these conditions, the optimal transduction time based on cell survival and Cre transduction was around 60 minutes. At those time points, one round of Cre protein transduction gave an 80% of GFP positive KBM7 cells. And two subsequent rounds of Cre protein transduction yielded 94% positive KBM7 (FIG. 19C). A second round of protein transduction didn't affect cell survival rate.

[2] = test system: murine embryonic fibroblasts (MEFs); assay: β-Lactamase protein transduction assay (CCF2-AM), protocol 3/700
Source text: To further characterize the protein transduction process we analyzed the effect of time, osmolality, transduction compound concentration and protein concentration on the transduction process. To this end, we set up a β-Lactamase protein transduction assay and measured intracellular β-Lactamase activity using CCF2-AM, an intracellular fluorescent β-Lactamase substrate that changes emission wavelength when cleaved by the enzyme (FIG. 3A). […] While we used the immortalized COS7 cell line in our initial studies, we wanted to know if the compound-mediated protein transduction would also allow the transduction of protein into primary cells. We therefore transduced murine embryonic fibroblasts (MEFs) with β-Lactamase (1 μM final concentration), using NaCl-adjusted hypertonic media (700 mOsm/Kg) and 25 mM NDSB201. β-Lactamase activity was set at 1 at the start of the experiment and relative intracellular β-Lactamase activity was measured as a function of time (FIG. 3B, bars). As a control, β-Lactamase transduction was measured in isotonic media in the presence of 25 mM NSDB201 (FIG. 3B, open circles).
β-lactamase transduction was performed using the 3/700 protocol above in murine embryonic fibroblasts (MEFs). A black, clear-bottom 96 well-plate was coated with 0.15 mg/ml of Poly-D-Lysine for 1 h at room temperature. 12,000 MEFs cells were seeded per well in MEF media without antibiotics. Next day, cells were transduced using the transduction protocol 3/700 as describe above. […] Na- or Rb-salt was added to adjust the final tonicity to 700 mOsm/Kg. […] After 3 hrs., the transduction media was replaced by fresh MEF media for 30 min. Subsequently, cells were washed once with phenol-red-free DMEM. β-lactamase activity was measured using the CCF2-AM kit following the manufacturer's instructions. In brief, 120 μl of CCF2-AM loading media was added per well and cells were incubated for 1 h at room temperature. Cells were washed two times with DMEM phenol-red free and incubated for an additional 30-60 min. Fluorescence emission was measured at […] and 510 nm following manufacturer's instructions. All tests were done in triplicate.

KBM7 cells [3] = format: cell-based; details: human, 250 mM
Experimental: (B) BrdU incorporation rate was determined in KBM7 cells incubated with osmocytosis buffer with NDSB-201 or GABA at different time points. Untreated cells were considering as 100% of BrdU incorporation.
Next we optimized the transduction media to allow the transduction of recombinant Cas9. […] For this reason we developed a “Cas9-adapted transduction protocol” (the “fourth protocol”) with a final osmolality of 1250 mOsmol/Kg and a concentration of 250 mM of NDSB-201 (transduction compound #01) or other transduction compounds selected from the FIGS. 7A-7D. We expected that higher osmolalities and NDSBs will induce faster protein transduction but also could possibly increase the cellular toxicity. To characterize this new transduction conditions we measured BrdU incorporation upon high osmolarity (1250 mOsm/Kg) transduction at different short time points, in KBM7 cells.

[4] = test system: GFP-expressing murine embryonic fibroblasts (MEFs); assay: Macropinocytosis mediated uptake of TMR-dextran and BSA, confocal microscopy; format: cell-based; details: 100 μM EIPA 30 min before and during transduction
Experimental: To assess if the transduction buffer would permit the simultaneous transduction of proteins and large molecules, we analyzed macropinocytosis mediated uptake of TMR-dextran (red) and fluorescently labeled BSA protein (cyan) by GFP-expressing murine embryonic fibroblasts (MEFs). In brief, MEFs expressing eGFP protein (green) were incubated with 5 μg/ml of high molecular weight TMR-Dextran (red) and 1 μg of BSA-Alexa-647 (far-red) in 1× transduction media (protocol 700/3) for 30 min. Subsequently, cells were washed twice in 1× transduction buffer. Finally, cells were maintained in 1× transduction buffer and immediately analyzed by confocal microscopy. Dextran and BSA uptake was inhibited by incubating cells with 100 μM Ethylisopropylamiloride (EIPA) 30 min before and during transduction procedure.

[5] = test system: MEFs cells expressing GAL3-GFP protein; assay: GAL3-GFP macropinosome vesicle leakage reporter assay; details: 700/3 conditions
Experimental: Schematic representation of the GAL3-GFP reporter assay. Upon initiation of transduction, extracellularly applied protein is taken up into macropinosomes (grey vesicles). […] At the same time, the compromised macropinosome membrane now allows entry of cytosolic GAL3-GFP protein, which binds to—and accumulates at the intra-macropinosome carbohydrates resulting in a bright fluorescent signal (white vesicles). […] GAL3-GFP cells were incubated with transduction media at 700 mOsmol/Kg with or without the macropinocytosis inhibitor EIPA. Untreated cells were included as negative control.
For transduction to occur, proteins that have been taken by macropinocytosis have to be released into the cytosol. […] To test the efficacy of potential transduction compound candidates, we set up an assay to monitor macropinosome vesicle permeation. […] We set up a reporter system in which Galectin-3 protein is fused to GFP (GAL3-GFP). Cytosolic GAL3-GFP protein relocalises to the interior of permeabilized macropinosomes, whereby a multimer complex is formed with intense green fluorescent emission. MEFs cells expressing GAL3-GFP protein were transduced using the 700/3 conditions.

[6] = test system: human iPSC-derived glial cells and neurons; assay: CRE reporter in human iPSC-derived glial cells and neurons; format: cell-based; details: 5 μM CRE
Source text: (§1) A similar strategy of CRE-recombinase mediated red-to-green reporter shift as described above, was utilized to assess the transduction of murine and human neurons, glia and neural stem cells. FIG. 10A depicts a schematic representation of the assay. […] Since the fluorescent reporter construct was introduced into the iPSC-derived glial cells and neurons using lentiviral infection, cells likely incorporated multiple copies of this reporter.

[7] = test system: human induced pluripotent stem cells (iPSCs); assay: CRE recombinase dsRed-to-eGFP reporter, flow cytometry
murine ESCs = assay: ESC proliferation by cell counting after CRE transduction; format: cell-based; details: with or without Tat-HA2 fusion peptide
Source text: Top & bottom graph. After 2 days, transduced (white circle) or untransduced (grey bars) cells were counted every day to make cell proliferation curves.
Untransduced cells were used as a control.

[8] = test system: murine embryonic stem cells (mESCs); assay: CRE recombinase Lox-Stop-Lox-eGFP reporter, flow cytometry
Source text: To explore protein transduction of murine embryonic stem cells in more detail, we used a transgenic mESC line in which a CRE-recombinase inducible reporter was stably integrated in the ColA1 locus^2. […] Next we tested whether protein transduction affected ESC proliferation. After two rounds of CRE-protein transduction, the doubly transduced cells in FIG. 8B were trypsinized, seeded onto MEFs feeders, and cell proliferation was monitored by cell counting. Untransduced cells were used as a control. […] Next we explored the expression of key pluripotency factors in the double transduced mESCs by qRTPCR. […] To test the pluripotency of the transduced mESCs, double-transduced GFP+ ESCs from the experiment in FIG. 8B were injected into host blastocyst embryos and transplanted into pseudopregnant foster mice.

murine neurospheres = assay: CRE reporter in murine neurospheres; format: cell-based; details: CRE protein transduction, protocol 12/500
Source text: as §1
Neurospheres were transferred to a 96 well plate with 80 μl of the neuronal stem cells media. Right after, 20 μl of CRE in 5× Transduction buffer was added to cell and mixed carefully.

For NCCCC(=O)O [Compound #20, gamma-aminobutyric acid], the “optimal transduction time based on cell survival and Cre transduction” value (KBM7 cells [1]) was “around 60 minutes”, the “β-lactamase transduction activity when combined with reference compound #01 (reference set at 100%)” value ([2]; equimolar with NDSB201 (#01), 12.5 mM each, total 25 mM, 3 hours, 700 mOsm/Kg) was “largely unchanged” and the “cell survival (BrdU incorporation) in KBM7” value (KBM7 cells [3]) was “much better survival than NDSB-201”.

CCN(c1nc(N)c(C(=O)N=C(N)N)nc1Cl)C(C)C [EIPA, 5-(N-ethyl N-isopropyl)-amiloride, reference compound] was tested, and the “effect on Dextran and BSA transduction” value [4] was “inhibited”, the “Gal3-GFP localisation to macropinocytic vesicles (vesicle leakage)” value [5] was “did not relocalize to vesicles” and the “effect on protein transduction in the presence of FGF and PDGF” value ([2]; 700 mOsm/Kg, 25 mM NDSB201) was “completely blocked protein transduction”. For the same molecule, the “effect of endocytic pathway inhibitor on protein transduction” value ([2]; 3 hours, 1 μM β-lactamase, 700 mOsm/Kg NaCl, 25 mM NDSB201) was “strongly inhibited; also recorded: completely inhibits protein transduction”.

B1: CRE protein: recombinant CRE recombinase protein (protein, UniProt P06956 1-343, looked up)
Recombinase cre: MSNLLTVHQNLPALPVDATSDEVRKNLMDMFRDRQAFSEHTWKMLLSVCRSWAAWCKLNNRKWFPAEPEDVRDYLLYLQARGLAVKTIQQHLGQLNMLHRRSGLPRPSDSNAVSLVMRRIRKENVDAGERAKQALAFERTDFDQVRSLMENSDRCQDIRNLAFLGIAYNTLLRIAEIARIRVKDISRTDGGRMLIHIGRTKTLVSTAGVEKALSLGVTKLVERWISVSGVADDPNNYLFCRVRKNGVAAPSATSQLSTRALEGIFEATHRLIYGAKDDSGQRYLAWSGHSARVGAARDMARAGVSIPEIMQAGGWTNVNIVMNYIRNLDSETGAMVRLLEDGD
B1 was tested, and the eGFP reporter activation [6] was “efficient activation of the eGFP reporter”, the “cells shifted to eGFP expression” value ([7]; 5 μM CRE protein, 12 hours at 500 mOsm/Kg, single transduction) was 64% and the eGFP cells ([7]; double CRE protein transduction, without Tat-HA2 fusion peptide) was 78%. The “ESC proliferation after two rounds of CRE protein transduction” value (murine ESCs) was “did not affect ESC proliferation”, the “GFP positive KBM7 cells” value (KBM7 cells [1]; one round, around 60 minutes) was 80% and the “positive KBM7” value (KBM7 cells [1]; two subsequent rounds) was 94%. The “GFP+ ESCs” value ([8]; 5 μM CRE, two sequential rounds, 12 hrs each at 500 mOsm/Kg with glycerol and glycine) was 79%, the “GFP-positive mESCs” value ([8]; Okada method (hypertonic/hypotonic), 5 μM CRE-recombinase protein) was 6% and the eGFP reporter activation (murine neurospheres) was “efficient activation of the eGFP reporter”.
